Legend:
[1] = substrate: NC(=O)CC[C@H](N)C(=O)O; experiment: purified protein; settings: 50 mM HEPES pH 7.5, 37 °C, sigmoidal, cooperative
[2] = substrate: NC(=O)C[C@H](N)C(=O)O; experiment: purified protein; settings: 50 mM HEPES pH 7.5, 37 °C, hyperbolic

B1: HpASNase (Helicobacter pylori 26695) (protein)
chain: MAQNLPTIALLATGGTIAGSGASASLGSYKSGELGIKELLKAIPSLNRLARIQGEQISNIGSQDMNEEVWFKLAKRAQELLDDSRIQGVVITHGTDTLEESAYFLNLVLRSTKPVVLVGAMRNAASLSADGALNLYNAVSVALNEKSANKGVLVVMDDNIFSAREVIKTHTTHTSTFKALNSGAIGSVYYGKTRYYMQPLRKHTTESEFSLSQLKTPLPKVDIIYTHAGMTPDLFQASLNSHAKGVVIAGVGNGNVSAGFLKAMQEASQMGVVIVRSSRVNSGEITSGEIDDKAFITSDNLNPQKARVLLQLALTKTNNKEKIQEMFEEY
Work on B1 yielded a K0.5 [1] of 46.4 ± 4.02 mM, a kcat [1] of 22.1 ± 1.39 s⁻¹ and a kcat/Km [1] of 470 ± 100 M⁻¹ s⁻¹. For the same protein, the K0.5 [2] was 0.29 ± 0.03 mM, the kcat [2] was 19.3 ± 0.56 s⁻¹ and the kcat/Km [2] was 66400 M⁻¹ s⁻¹.

Source: paper PMC4496674, “Tackling Critical Catalytic Residues in Helicobacter pylori L-Asparaginase” (Biomolecules, 2015)
